As a reminder, the Kd is the free concentration of one partner at which half of the binding sites on the other are occupied at equilibrium, for simple one-to-one binding.

In assay [1] the target is T1, human sclerostin (human, UniProt Q9BQB4 24-213).
T1 sequence: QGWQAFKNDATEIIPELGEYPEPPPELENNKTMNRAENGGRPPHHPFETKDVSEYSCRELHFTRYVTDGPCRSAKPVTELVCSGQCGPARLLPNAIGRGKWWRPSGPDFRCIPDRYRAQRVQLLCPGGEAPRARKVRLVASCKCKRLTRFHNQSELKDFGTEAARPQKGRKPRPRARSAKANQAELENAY
The assay can be described thus: cell-based or functional assay.

In assay [2] the target is T2, cynomologous monkey sclerostin (cynomologous monkey). The assay can be described thus: cell-based or functional assay.
In assay [3] the target is T1, human sclerostin. The assay is described as follows: KinExA 3000 equilibrium binding in solution, 25 C, 1:1 model. The procedure: (§1) Equilibrium binding studies between an anti-sclerostin antibody and either human, cynomologous (“cyno”) monkey or rat sclerostin are performed on a KinExA 3000 instrument (Sapidyne Instruments Inc.) under KD-controlled conditions. With this technique, a fixed concentration of antibody below its KD is mixed with various concentration of sclerostin protein and allowed to come to equilibrium. The fraction of free, unbound, antibody remaining in solution is probed by briefly exposing this equibrated mixture to sclerostin-coated beads followed by detection with a fluorescently labeled secondary antibody. Typically 2 μM of an anti-sclerostin antibody to be tested is mixed with varying concentrations of human, cyno, or rat sclerostin starting at 2-50 nM and doing three-fold serial dilutions in binding buffer (1× phosphate buffered saline solution, pH 7.4, 0.02% sodium azide and 1 mg/mL bovine serum albumin) containing 2 pM of the antibody to be tested. These solutions are allowed to reach equilibrium over two days at 25° C. The amount of unbound antibody is probed using human sclerostin-coated azlactone beads (Sapidyne Instruments Inc.). These beads are prepared by reacting 50 mg of dry azlactone beads with 50 mcg/ml human sclerostin in a 50 mM sodium carbonate buffer at pH 9.0-9.6 with overnight rotation. Beads are then allowed to settle and the supernatant is replaced with blocking solution (1 M Tris, pH 8.0, plus 10 mg/mL bovine serum albumin) and rotated for one hour. This bead stock is diluted 20-fold into binding buffer and used within three days. A KinExA 3000 instrument equilibrated at room temperature (ca 25° C.) is used for binding studies. Typically 6.25 mL of the equilibrated antibody/sclerostin solution are drawn over a packed human sclerostin-azlactone bead column at 0.25 mL/minute flow rate then rinsed with running buffer (1× phosphate buffered saline solution, pH 7.4 with 0.02% sodium azide). The fraction of free anti-sclerostin antibody bound to these beads is quantified by measuring fluorescence resulting from an injected labeled secondary antibody (Cy5-labeled goat anti-human Fab′2 antibody). Two replicate samples for each condition are analyzed and KD is determined by fitting data to a 1:1 binding model using KinExA Pro software.
(In general: Kinetic exclusion samples the free partner from a solution-phase mixture.)

Assay [4] addresses T2, cynomologous monkey sclerostin. The description is as above. The method, then:
as §1

Assay [5] concerns the target T3, rat sclerostin (rat, UniProt Q99P67 24-213, limits assumed).
T3 sequence (looked up): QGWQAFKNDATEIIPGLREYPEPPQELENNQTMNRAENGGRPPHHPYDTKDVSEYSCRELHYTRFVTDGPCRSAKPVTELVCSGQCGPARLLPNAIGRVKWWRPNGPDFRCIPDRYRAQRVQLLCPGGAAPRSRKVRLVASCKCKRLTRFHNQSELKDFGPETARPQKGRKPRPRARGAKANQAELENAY
Described as above. The method, then:
as §1

B1: humanized anti-sclerostin monoclonal antibody 89 (antibody, human IgG4 S228P, kappa, V domains shown)
VH: EVQLVQSGAEVKKPGESLKISCKGSDFEIKDYYIHWVRQMPGKGLEWMGQIDAEDGETEYAPRFQGQVTISADKSISTAYLQWSSLKASDTAMYYCAREGYYYDGRDYWYFDVWGQGTTVTVSS
VL: EIVLTQSPATLSLSPGERATLSCSASSSVSYIHWYQQKPGQAPRLLIYSTSELASGIPARFSGSGSGTDFTLTISSLEPEDFAVYYCQQLSHLPLTFGGGTKVEIKR
notes: Full-length humanized antibody; Derived from chimeric parent 789
With B1, in assay [1], the “IC50 (nM), bone specific alkaline phosphatase assay in C2C12 cells, using human sclerostin” value turned out to be 25.1 nM. In addition, in assay [2], the “IC50 (nM), bone specific alkaline phosphatase assay in C2C12 cells, using cyno sclerostin” value (“IC50 (nM) … using cyno sclerostin” for short) stood at 34.4 nM. The Kd in assay [3] worked out at 0.3 pM; in assay [4] it was 1.4 pM; in assay [5], 0.4 pM.

B2: humanized anti-sclerostin monoclonal antibody 88 (antibody, human IgG4 S228P, kappa, V domains shown)
VH: QVQLVQSGAEVKKPGASVKVSCKVSGFPIKDTFQHWVRQAPGKGLEWMGWSDPEIGDTEYASKFQGRVTMTEDTSTDTAYMELSSLRSEDTAVYYCATGDTTYKFDFWGQGTTVTVSS
VL: DIQMTQSPSSLSASVGDRVTITCKASQDVHTAVAWYQQKPGKAPKLLIYWASTRWTGVPSRFSGSGSGTDFTLTISSLQPEDFATYYCQQYSDYPWTFGGGTKVEIKR
notes: Full-length humanized antibody; Derived from chimeric parent 788
For B2, the “IC50 (nM) … using cyno sclerostin” value in assay [2] came out at 23.7 nM. Also, the equilibrium dissociation constant (Kd) in assay [4] was 75 pM; in assay [5], 2.2 pM.

B3: humanized anti-sclerostin monoclonal antibody 86 (antibody, human IgG4 S228P, kappa, V domains shown)
VH: QVQLVQSGAEVKKPGSSVKVSCKASGYTFTDYFLNWVRQAPGQGLEWMGTIYPYHDGTTYSQKFKGRVTITADKSTSTAYMELSSLRSEDTAVYYCAREEEDGQFDYWGQGTTVTVSS
VL: DIQMTQSPSSLSASVGDRVTITCSASQGIQWYLNWYQQKPGKAPKLLIYYTSSLHSGVPSRFSGSGSGTDFTLTISSLQPEDFATYYCQQHSKLPRTFGGGTKVEIKR
notes: Full-length humanized antibody; Two heavy and two light chains per claim 3
Consider B3, for which the “IC50 (nM), bone specific alkaline phosphatase assay in C2C12 cells, using human sclerostin” value in assay [1] turned out to be 25.5 nM. For the same molecule, the “IC50 (nM) … using cyno sclerostin” value in assay [2] is 31.6 nM. The Kd in assay [3] came out at 0.6 pM; in assay [4] it was 1 pM; in assay [5], 0.1 pM.
